{"source": "paper PMC8327961", "about": "“Nse5/6 inhibits the Smc5/6 ATPase and modulates DNA substrate binding” (The EMBO Journal, 2021)", "key": {"[1]": {"target": "T1, Smc6(N643C) (S. cerevisiae, UniProt Q12749 1-1114, N643C)", "T1 construct": "Smc6, S. cerevisiae; subunit of the Hinge-Cys (south) hexamer; also called Hinge-Cys south, Smc6; source: E. coli (DE3) Rosetta, purified as part of the hexamer", "T1 sequence (looked up)": "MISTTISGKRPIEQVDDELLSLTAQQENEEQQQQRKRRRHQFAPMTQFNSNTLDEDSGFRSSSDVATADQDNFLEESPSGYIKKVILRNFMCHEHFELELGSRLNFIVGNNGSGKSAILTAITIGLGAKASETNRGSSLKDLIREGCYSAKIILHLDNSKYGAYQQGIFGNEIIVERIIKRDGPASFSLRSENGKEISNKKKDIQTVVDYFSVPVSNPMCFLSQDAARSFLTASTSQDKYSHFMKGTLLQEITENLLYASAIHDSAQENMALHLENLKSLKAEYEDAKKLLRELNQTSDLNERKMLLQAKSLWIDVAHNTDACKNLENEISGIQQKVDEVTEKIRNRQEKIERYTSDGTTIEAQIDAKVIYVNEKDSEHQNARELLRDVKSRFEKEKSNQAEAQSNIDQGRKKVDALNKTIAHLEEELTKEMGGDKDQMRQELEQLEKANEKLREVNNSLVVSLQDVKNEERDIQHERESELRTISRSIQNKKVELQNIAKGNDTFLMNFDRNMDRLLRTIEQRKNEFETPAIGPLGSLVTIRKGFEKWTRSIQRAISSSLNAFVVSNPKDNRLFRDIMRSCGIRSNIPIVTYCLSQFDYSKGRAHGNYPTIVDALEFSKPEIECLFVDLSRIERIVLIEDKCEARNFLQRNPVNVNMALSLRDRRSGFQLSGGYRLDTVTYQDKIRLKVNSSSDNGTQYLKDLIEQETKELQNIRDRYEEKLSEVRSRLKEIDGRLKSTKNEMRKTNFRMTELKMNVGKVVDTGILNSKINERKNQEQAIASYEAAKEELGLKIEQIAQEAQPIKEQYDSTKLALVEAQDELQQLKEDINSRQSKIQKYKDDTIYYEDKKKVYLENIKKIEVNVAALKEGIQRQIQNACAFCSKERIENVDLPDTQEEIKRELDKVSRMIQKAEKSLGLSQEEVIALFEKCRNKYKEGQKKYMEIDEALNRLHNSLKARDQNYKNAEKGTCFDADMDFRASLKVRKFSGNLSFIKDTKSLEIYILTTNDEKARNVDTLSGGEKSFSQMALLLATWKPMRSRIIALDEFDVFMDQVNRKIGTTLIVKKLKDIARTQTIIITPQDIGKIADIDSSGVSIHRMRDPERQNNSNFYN", "assay": "cross-linking; BMOE (1 mM, 45 s) on hexamers with reporter cysteines, 0.5 µM in ATPase buffer; without or with Nse5/6 (0.625 µM), 2 mM ATP, plasmid DNA or 40 bp DNA; SDS-PAGE, Coomassie", "conditions": "both partners purified"}, "[2]": {"target": "T2, Smc6(N572C) (S. cerevisiae, UniProt Q12749 1-1114, N572C)", "T2 construct": "Smc6, S. cerevisiae; subunit of the Hinge-Cys (north) hexamer; also called Hinge-Cys north, Smc6; source: E. coli (DE3) Rosetta, purified as part of the hexamer", "T2 sequence (looked up)": "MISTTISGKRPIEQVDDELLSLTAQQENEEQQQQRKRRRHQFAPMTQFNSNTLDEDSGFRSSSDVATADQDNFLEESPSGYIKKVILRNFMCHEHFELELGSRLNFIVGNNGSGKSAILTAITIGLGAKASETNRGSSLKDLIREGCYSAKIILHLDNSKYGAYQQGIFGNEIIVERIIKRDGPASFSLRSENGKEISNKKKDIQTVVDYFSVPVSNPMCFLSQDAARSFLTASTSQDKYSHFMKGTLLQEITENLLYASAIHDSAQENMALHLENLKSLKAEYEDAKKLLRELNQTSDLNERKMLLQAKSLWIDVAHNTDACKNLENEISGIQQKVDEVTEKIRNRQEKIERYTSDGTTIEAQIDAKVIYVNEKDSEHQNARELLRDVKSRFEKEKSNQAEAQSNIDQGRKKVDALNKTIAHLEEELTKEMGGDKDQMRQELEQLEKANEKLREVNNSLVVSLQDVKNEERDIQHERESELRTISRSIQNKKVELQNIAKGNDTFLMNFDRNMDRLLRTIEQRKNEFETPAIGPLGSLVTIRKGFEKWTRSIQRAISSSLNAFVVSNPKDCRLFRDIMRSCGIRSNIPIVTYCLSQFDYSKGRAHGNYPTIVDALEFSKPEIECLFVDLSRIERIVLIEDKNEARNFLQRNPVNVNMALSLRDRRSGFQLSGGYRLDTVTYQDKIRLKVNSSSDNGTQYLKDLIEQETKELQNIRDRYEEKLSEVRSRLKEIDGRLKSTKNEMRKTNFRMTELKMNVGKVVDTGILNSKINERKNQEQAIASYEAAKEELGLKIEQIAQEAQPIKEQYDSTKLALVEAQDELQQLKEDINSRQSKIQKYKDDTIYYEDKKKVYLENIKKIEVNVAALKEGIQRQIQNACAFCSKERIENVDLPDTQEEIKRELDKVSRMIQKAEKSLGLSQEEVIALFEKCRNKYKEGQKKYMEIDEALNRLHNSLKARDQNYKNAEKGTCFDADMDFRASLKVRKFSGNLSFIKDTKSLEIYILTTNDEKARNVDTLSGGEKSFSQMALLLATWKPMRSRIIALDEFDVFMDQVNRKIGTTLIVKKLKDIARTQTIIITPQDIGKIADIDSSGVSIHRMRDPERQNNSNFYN", "assay": "cross-linking; BMOE (1 mM, 45 s) on hexamers with reporter cysteines, 0.5 µM in ATPase buffer; without or with Nse5/6 (0.625 µM), 2 mM ATP, plasmid DNA or 40 bp DNA; SDS-PAGE, Coomassie", "conditions": "both partners purified"}}, "data": [{"binder": "Smc5(N526C) (natural protein, S. cerevisiae, UniProt Q08204 1-1093, looked up, Smc5, S. cerevisiae; subunit of the Hinge-Cys (south) hexamer; also called Hinge-Cys south, Smc5; source: E. coli (DE3) Rosetta, purified as part of the hexamer) MTSLIDLGRYVERTHHGEDTEPRSKRVKIAKPDLSSFQPGSIIKIRLQDFVTYTLTEFNLSPSLNMIIGPNGSGKSTFVCAVCLGLAGKPEYIGRSKKVEDFIKNGQDVSKIEITLKNSPNVTDIEYIDARDETIKITRIITRSKRRSDYLINDYQVSESVVKTLVAQLNIQLDNLCQFLSQERVEEFARLKSVKLLVETIRSIDASLLDVLDELRELQGNEQSLQKDLDFKKAKIVHLRQESDKLRKSVESLRDFQNKKGEIELHSQLLPYVKVKDHKEKLNIYKEEYERAKANLRAILKDKKPFANTKKTLENQVEELTEKCSLKTDEFLKAKEKINEIFEKLNTIRDEVIKKKNQNEYYRGRTKKLQATIISTKEDFLRSQEILAQTHLPEKSVFEDIDIKRKEIINKEGEIRDLISEIDAKANAINHEMRSIQRQAESKTKSLTTTDKIGILNQDQDLKEVRDAVLMVREHPEMKDKILEPPIMTVSAINAQFAAYLAQCVDYNTSKALTVVDSDSYKLFACPILDKFKVNLRELSSADTTPPVPAETVRDLGFEGYLSDFITGDKRVMKMLCQTSKIHTIPVSRRELTPAQIKKLITPRPNGKILFKRIIHGNRLVDIKQSAYGSKQVFPTDVSIKQTNFYQGSIMSNEQKIRIENEIINLKNEYNDRKSTLDALSNQKSGYRHELSELASKNDDINREAHQLNEIRKKYTMRKSTIETLREKLDQLKREARKDVSQKIKDIDDQIQQLLLKQRHLLSKMASSMKSLKNCQKELISTQILQFEAQNMDVSMNDVIGFFNEREADLKSQYEDKKKFVKEMRDTPEFQSWMREIRSYDQDTKEKLNKVAEKYEEEGNFNLSFVQDVLDKLESEIAMVNHDESAVTILDQVTAELRELEHTVPQQSKDLETIKAKLKEDHAVLEPKLDDIVSKISARFARLFNNVGSAGAVRLEKPKDYAEWKIEIMVKFRDNAPLKKLDSHTQSGGERAVSTVLYMIALQEFTSAPFRVVDEINQGMDSRNERIVHKAMVENACAENTSQYFLITPKLLTGLHYHEKMRIHCVMAGSWIPNPSEDPKMIHFGETSNYSFD", "values": [{"measurement": "binding result", "setting": "[1]", "value": "binds"}]}, {"binder": "Smc5(V638C) (natural protein, S. cerevisiae, UniProt Q08204 1-1093, looked up, Smc5, S. cerevisiae; subunit of the Hinge-Cys (north) hexamer; also called Hinge-Cys north, Smc5; source: E. coli (DE3) Rosetta, purified as part of the hexamer) MTSLIDLGRYVERTHHGEDTEPRSKRVKIAKPDLSSFQPGSIIKIRLQDFVTYTLTEFNLSPSLNMIIGPNGSGKSTFVCAVCLGLAGKPEYIGRSKKVEDFIKNGQDVSKIEITLKNSPNVTDIEYIDARDETIKITRIITRSKRRSDYLINDYQVSESVVKTLVAQLNIQLDNLCQFLSQERVEEFARLKSVKLLVETIRSIDASLLDVLDELRELQGNEQSLQKDLDFKKAKIVHLRQESDKLRKSVESLRDFQNKKGEIELHSQLLPYVKVKDHKEKLNIYKEEYERAKANLRAILKDKKPFANTKKTLENQVEELTEKCSLKTDEFLKAKEKINEIFEKLNTIRDEVIKKKNQNEYYRGRTKKLQATIISTKEDFLRSQEILAQTHLPEKSVFEDIDIKRKEIINKEGEIRDLISEIDAKANAINHEMRSIQRQAESKTKSLTTTDKIGILNQDQDLKEVRDAVLMVREHPEMKDKILEPPIMTVSAINAQFAAYLAQCVDYNTSKALTVVDSDSYKLFANPILDKFKVNLRELSSADTTPPVPAETVRDLGFEGYLSDFITGDKRVMKMLCQTSKIHTIPVSRRELTPAQIKKLITPRPNGKILFKRIIHGNRLVDIKQSAYGSKQVFPTDCSIKQTNFYQGSIMSNEQKIRIENEIINLKNEYNDRKSTLDALSNQKSGYRHELSELASKNDDINREAHQLNEIRKKYTMRKSTIETLREKLDQLKREARKDVSQKIKDIDDQIQQLLLKQRHLLSKMASSMKSLKNCQKELISTQILQFEAQNMDVSMNDVIGFFNEREADLKSQYEDKKKFVKEMRDTPEFQSWMREIRSYDQDTKEKLNKVAEKYEEEGNFNLSFVQDVLDKLESEIAMVNHDESAVTILDQVTAELRELEHTVPQQSKDLETIKAKLKEDHAVLEPKLDDIVSKISARFARLFNNVGSAGAVRLEKPKDYAEWKIEIMVKFRDNAPLKKLDSHTQSGGERAVSTVLYMIALQEFTSAPFRVVDEINQGMDSRNERIVHKAMVENACAENTSQYFLITPKLLTGLHYHEKMRIHCVMAGSWIPNPSEDPKMIHFGETSNYSFD", "values": [{"measurement": "binding result", "setting": "[2]", "value": "binds"}]}]}
